In US20240294644A1 (BLUEFIN BIOMEDICINE, published 2024):
Where two headings read alike, the source gives them in different places.

T1: recombinant human VTCN1-his protein (human, UniProt Q7Z7D3 25-259, limits assumed)
T1 construct: also called human VTCN1 protein; recombinant VTCN1
T1 sequence: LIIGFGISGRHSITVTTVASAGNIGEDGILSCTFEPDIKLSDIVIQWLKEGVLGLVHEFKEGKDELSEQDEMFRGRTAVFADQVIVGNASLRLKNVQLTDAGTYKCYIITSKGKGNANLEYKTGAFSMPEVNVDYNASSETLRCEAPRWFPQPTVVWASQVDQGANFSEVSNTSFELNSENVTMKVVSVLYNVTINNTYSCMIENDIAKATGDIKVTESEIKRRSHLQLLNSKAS

T2: human VTCN1 expressed on cells (293-VTCN1 cells; SKBR3, MX-1 and ZR-75-1 cells that express it naturally) (human, UniProt Q7Z7D3 25-282)
T2 construct: The cDNA was bought from Origene
T2 sequence: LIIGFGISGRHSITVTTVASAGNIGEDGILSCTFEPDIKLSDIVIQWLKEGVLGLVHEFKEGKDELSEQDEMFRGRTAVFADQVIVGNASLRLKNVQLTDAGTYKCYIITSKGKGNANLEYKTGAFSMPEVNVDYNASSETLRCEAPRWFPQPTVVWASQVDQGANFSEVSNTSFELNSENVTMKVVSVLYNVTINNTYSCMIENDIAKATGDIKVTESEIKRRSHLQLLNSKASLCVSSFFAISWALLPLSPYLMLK

T3: cynomolgus monkey VTCN1 expressed on 293 cells (cynomolgus monkey, UniProt A0A2K5U6P5 25-282)
T3 construct: whole, on cells
T3 sequence: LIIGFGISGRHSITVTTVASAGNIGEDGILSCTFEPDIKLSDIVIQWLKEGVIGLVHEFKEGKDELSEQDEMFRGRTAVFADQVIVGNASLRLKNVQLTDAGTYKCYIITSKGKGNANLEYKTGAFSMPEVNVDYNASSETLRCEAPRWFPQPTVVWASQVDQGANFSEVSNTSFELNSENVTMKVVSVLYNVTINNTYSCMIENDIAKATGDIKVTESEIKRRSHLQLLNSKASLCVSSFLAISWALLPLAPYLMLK

T4: mouse VTCN1 expressed on 293 cells (mouse, UniProt Q7TSP5 25-257)
T4 construct: whole, on cells
T4 sequence (looked up): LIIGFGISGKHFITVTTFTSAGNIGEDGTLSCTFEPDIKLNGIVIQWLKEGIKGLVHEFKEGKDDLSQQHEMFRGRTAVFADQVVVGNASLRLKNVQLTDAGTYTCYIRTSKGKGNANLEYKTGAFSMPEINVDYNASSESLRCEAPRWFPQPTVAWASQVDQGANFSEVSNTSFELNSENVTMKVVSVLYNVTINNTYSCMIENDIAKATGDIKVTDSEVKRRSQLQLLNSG

T5: VTCN1 IgC domain only construct expressed on 293 cells (human, UniProt Q7Z7D3 150-259, limits assumed)
T5 construct: The construct lacks the IgV domain
T5 sequence: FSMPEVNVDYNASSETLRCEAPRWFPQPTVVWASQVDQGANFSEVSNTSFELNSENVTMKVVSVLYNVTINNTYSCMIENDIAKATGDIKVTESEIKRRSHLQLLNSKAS

T6: VTCN1 IgV domain only construct expressed on 293 cells (human, UniProt Q7Z7D3 29-149, limits assumed)
T6 construct: The construct lacks the IgC domain
T6 sequence: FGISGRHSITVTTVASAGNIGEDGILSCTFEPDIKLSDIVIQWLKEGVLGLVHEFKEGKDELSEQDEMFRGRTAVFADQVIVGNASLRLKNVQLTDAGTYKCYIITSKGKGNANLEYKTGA

T7: cynomolgus monkey VTCN1 protein (cynomolgus monkey, UniProt A0A2K5U6P5 25-259)
T7 construct: The construct and its tag are not described; also called cyno VTCN1
T7 sequence: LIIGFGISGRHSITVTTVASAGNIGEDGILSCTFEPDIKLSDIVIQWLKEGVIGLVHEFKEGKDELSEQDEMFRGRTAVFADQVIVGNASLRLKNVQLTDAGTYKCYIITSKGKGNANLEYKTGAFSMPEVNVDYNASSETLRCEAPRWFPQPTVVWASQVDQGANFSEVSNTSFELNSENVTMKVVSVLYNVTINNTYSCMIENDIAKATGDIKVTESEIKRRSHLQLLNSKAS

T8: mouse VTCN1 protein (mouse, UniProt Q7TSP5 25-257, limits assumed)
T8 construct: The construct and its tag are not described
T8 sequence (looked up): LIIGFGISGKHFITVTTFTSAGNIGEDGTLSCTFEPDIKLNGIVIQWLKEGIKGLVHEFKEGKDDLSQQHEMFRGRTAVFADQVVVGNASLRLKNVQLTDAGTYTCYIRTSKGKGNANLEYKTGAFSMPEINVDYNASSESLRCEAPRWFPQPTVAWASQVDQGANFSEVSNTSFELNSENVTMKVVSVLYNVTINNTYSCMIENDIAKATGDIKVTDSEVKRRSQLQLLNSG


Columns and labels:
[1] = molecular target: T1, recombinant human VTCN1-his protein; test: BLI (OCTET), human VTCN1 protein
[2] = molecular target: T2, human VTCN1 expressed on cells …; test: flow cytometry of serially diluted antibody on SKBR3 cells (natural VTCN1), dye-labelled secondary antibody, MFI
[3] = molecular target: T3, cynomolgus monkey VTCN1 expressed on …; test: flow cytometry of serially diluted antibody on 293-cynoVTCN1 cells, dye-labelled secondary antibody, MFI
[4] = molecular target: T4, mouse VTCN1 expressed on 293 cells; test: flow cytometry of serially diluted antibody on 293-mouseVTCN1 cells, dye-labelled secondary antibody, MFI
[5] = molecular target: T5, VTCN1 IgC domain only construct …; test: flow cytometry on 293-VTCN1-IgC domain cells
[6] = molecular target: T2, human VTCN1 expressed on cells …; test: flow cytometry and immunofluorescence on cells
[7] = molecular target: T4, mouse VTCN1 expressed on 293 cells; test: flow cytometry on 293-VTCN1 (mouse) cells
[8] = molecular target: T6, VTCN1 IgV domain only construct …; test: flow cytometry on 293-VTCN1-IgV domain cells
[9] = molecular target: T4, mouse VTCN1 expressed on 293 cells; test: flow cytometry, antibody titration on 293-muVTCN1 cells
[10] = molecular target: T1, recombinant human VTCN1-his protein; test: BLI (OCTET), human VTCN1 protein; remark: listed apart in the source
[11] = molecular target: T7, cynomolgus monkey VTCN1 protein; test: BLI (OCTET), cynomolgus monkey VTCN1 protein
[12] = molecular target: T2, human VTCN1 expressed on cells …; test: flow cytometry, antibody titration on 293-huVTCN1 cells
[13] = molecular target: T3, cynomolgus monkey VTCN1 expressed on …; test: flow cytometry, antibody titration on 293-cynoVTCN1 cells
mouse VTCN1 protein = molecular target: T8, mouse VTCN1 protein; test: BLI (OCTET), mouse VTCN1 protein
[14] = molecular target: T2, human VTCN1 expressed on cells …; test: flow cytometry, antibody titration on SKBR3 cells (endogenous VTCN1)

| Binder | Kd [1] | EC50 (read off the curve) [2] | EC50 (read off the curve) [3] | binding result [4] | binding result [5] | binding result [6] | binding result [7] | binding result [8] | EC50 [9] | Kd [10] | Kd [11] | EC50 [12] | EC50 [13] | Kd (mouse VTCN1 protein) | EC50 [14] |
| --- | --- | --- | --- | --- | --- | --- | --- | --- | --- | --- | --- | --- | --- | --- | --- |
| 16H12_60B4 (antibody, V domains shown, Fully human antibody) VH: QVQVVQSGAEVKKPGSSVKVSCKASGDTFSNYAISWVRQAPGQGLEWMGGIIPIFGITNYAQKFQGRVTIIADKSTRTAYMELSSLRSEDTAVYYCSRGGPYFDYWGQGILVTVSS VL: EIVMTQSPATLSVSPGERATLSCRASQSVSSNLAWYQQKPGQAPRLLIYGASTRATGIPARFSGSGSGTEFTLTISSLQSEDFAVYYCQQYKKWPFTFGPGTKVDIK | – | – | – | – | – | – | – | – | 4.8 nM | 0.7 nM | 1 nM | 1.7 nM | 2.1 nM | 27 nM | 4 nM |
| 4C7_63A1 (antibody, V domains shown, Fully human antibody) VH: QVQLQESGPGLVKPSGTLSLTCAVSGGSISSSNWWSWVRQPPGKGLEAIGEIYHSGNTNYNPSLKSRVTISVDKSKNQFSLKLSSVTAADTAIYYCARDGYSSGWYWGYFDYWGQGTLVTVSS VL: EIVMTQSPATLSVSPGERATLSCRASQSVNSNLAWYQQKPGQAPWLLIYGASTRATGIPARFSGSGSGTEFTLTISSLQSEDFAVYYCQQYNHWPYTFGQGTKLEIK | – | – | – | – | – | – | – | – | 3.5 nM | 49 nM | 47 nM | 2.1 nM | 1.7 nM | 44 nM | 4.4 nM |

The next lines start with the values.

| Kd [1] | EC50 (read off the curve) [2] | EC50 (read off the curve) [3] | binding result [4] | binding result [5] | binding result [6] | binding result [7] | binding result [8] | EC50 [9] | Kd [10] | Kd [11] | EC50 [12] | EC50 [13] | Kd (mouse VTCN1 protein) | EC50 [14] | Binder |
| --- | --- | --- | --- | --- | --- | --- | --- | --- | --- | --- | --- | --- | --- | --- | --- |
| 36 nM | ~6 nM | ~2 nM | binds | – | – | – | – | – | – | – | – | – | – | – | hu6D9_57A5 (antibody, V domains shown, Humanized 6D9) VH: QVQLVESGGGVVQPGRSLRLSCAVSGFSLTSYGVQWVRQAPGKGLEWLAVIWSSGSTDYNAAFLSRLTISKDNSKNTVYFQMNSLRAEDTAVYYCARDVTTIVEGFAHWGQGTLVTVSS VL: DIQMTQSPSSLSASVGDRVTITCKASEKVGTYVSWYQQKPGKAPKLLIYGASNRYTGVPSRFSGSGSGTDFTLTISSLQPEDFATYYCGQTYSYPFTFGQGTKLEIK |
| – | – | – | – | no binding | binds | binds | no binding | – | – | – | – | – | – | – | 7C8 (antibody, V domains shown, Fully human antibody; also called VTCN1 antibody 7C8) VH: QVQLQESGPGLVKPSETLSLTCAVSGYSISSGYYWGWIRQPPGKGLEWIGSIYHSGTTYYNPSLKSRVTISVDTSKNQFSLKLNSVTAADTAVYYCATYSSGWYFYFDYWGQGTLVTVSS VL: DIQLTQSPSFLSASVGDRVTITCRASQGISSYLAWYQQKPGKAPKLLIYVASTLQSGVPSRFSGSGSGTEFTLTISSLQPEDFATYYCQQLNSYPITFGQGTRLEIK |
